T1: recombinant Factor VIII (CSL627, rVIII-SingleChain) (Homo sapiens (Human), UniProt P00451 20-2351)
T1 construct: also called FVIII
T1 sequence: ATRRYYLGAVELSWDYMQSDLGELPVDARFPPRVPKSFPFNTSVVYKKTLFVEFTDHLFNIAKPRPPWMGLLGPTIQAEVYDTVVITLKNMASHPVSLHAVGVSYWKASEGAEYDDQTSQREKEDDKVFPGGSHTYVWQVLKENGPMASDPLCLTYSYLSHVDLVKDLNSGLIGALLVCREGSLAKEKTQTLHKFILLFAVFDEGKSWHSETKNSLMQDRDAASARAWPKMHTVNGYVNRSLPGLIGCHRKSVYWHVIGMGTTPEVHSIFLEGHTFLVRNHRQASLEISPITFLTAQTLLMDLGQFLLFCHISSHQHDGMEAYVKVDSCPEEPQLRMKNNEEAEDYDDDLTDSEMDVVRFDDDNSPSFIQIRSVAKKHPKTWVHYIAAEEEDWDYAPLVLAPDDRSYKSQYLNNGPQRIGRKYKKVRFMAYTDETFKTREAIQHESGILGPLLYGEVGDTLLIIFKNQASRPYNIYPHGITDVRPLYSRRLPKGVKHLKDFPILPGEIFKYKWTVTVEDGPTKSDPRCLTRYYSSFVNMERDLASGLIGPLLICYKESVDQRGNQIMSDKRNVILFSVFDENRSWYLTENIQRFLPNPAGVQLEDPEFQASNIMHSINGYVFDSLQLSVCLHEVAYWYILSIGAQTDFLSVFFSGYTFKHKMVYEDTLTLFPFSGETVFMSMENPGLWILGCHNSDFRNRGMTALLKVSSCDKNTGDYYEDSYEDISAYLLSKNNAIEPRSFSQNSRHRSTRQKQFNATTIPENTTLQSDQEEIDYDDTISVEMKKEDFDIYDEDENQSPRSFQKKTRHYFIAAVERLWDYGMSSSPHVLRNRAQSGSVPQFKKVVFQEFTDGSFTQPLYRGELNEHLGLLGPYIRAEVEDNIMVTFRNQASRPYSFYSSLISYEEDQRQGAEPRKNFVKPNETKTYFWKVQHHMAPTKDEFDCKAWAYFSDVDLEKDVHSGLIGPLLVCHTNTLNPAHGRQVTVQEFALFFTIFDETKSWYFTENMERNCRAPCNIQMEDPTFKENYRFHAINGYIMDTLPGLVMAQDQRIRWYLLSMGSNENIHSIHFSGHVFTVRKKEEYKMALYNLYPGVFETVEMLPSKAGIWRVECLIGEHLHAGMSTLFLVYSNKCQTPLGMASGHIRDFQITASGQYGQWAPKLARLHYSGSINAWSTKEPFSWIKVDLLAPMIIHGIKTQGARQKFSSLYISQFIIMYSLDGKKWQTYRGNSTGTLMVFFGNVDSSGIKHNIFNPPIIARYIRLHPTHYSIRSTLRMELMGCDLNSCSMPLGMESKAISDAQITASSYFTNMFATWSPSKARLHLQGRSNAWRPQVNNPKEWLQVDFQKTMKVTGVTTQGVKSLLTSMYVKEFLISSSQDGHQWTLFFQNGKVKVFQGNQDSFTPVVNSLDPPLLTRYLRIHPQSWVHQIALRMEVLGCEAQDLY


Target: T1, recombinant Factor VIII (CSL627, …)
Assay: SPR, anti-His capture
Description: Binding kinetics were investigated by surface plasmon resonance using a Biacore 4000 biosensor at 37° C. Each mutant was captured from cell culture medium to a density of 40-150 RU on a CM-5 sensor chip pre-immobilised with anti-His antibody (14,000 RU). In an initial screening study, FVIII was injected over the captured mutants for 5 minutes at 1 nM and dissociation monitored for 5 minutes.
All sensorgrams were double referenced by subtraction of signals from a reference spot (containing only immobilised anti His antibody) and from a blank injection. Binding kinetics were determined by fitting the double referenced sensorgrams to a 1:1 kinetic model.

| Kd [pM] | koff [s⁻¹] | kon [M⁻¹ s⁻¹] | Binder |
| --- | --- | --- | --- |
| 43.5 | 0.000822 | 1.89e+07 | Hu-vWF[764-1270]-8His S764K/S766Y (other) KLYCRPPMVKLVCPADNLRAEGLECTKTCQNYDLECMSMGCVSGCLCPPGMVRHENRCVALERCPCFHQGKEYAPGETVKIGCNTCVCRDRKWNCTDHVCDATCSTIGMAHYLTFDGLKYLFPGECQYVLVQDYCGSNPGTFRILVGNKGCSHPSVKCKKRVTILVEGGEIELFDGEVNVKRPMKDETHFEVVESGRYIILLLGKALSVVWDRHLSISVVLKQTYQEKVCGLCGNFDGIQNNDLTSSNLQVEEDPVDFGNSWKVSSQCADTRKVPLDSSPATCHNNIMKQTMVDSSCRILTSDVFQDCNKLVDPEPYLDVCIYDTCSCESIGDCACFCDTIAAYAHVCAQHGKVVTWRTATLCPQSCEERNLRENGYECEWRYNSCAPACQVTCQHPEPLACPVQCVEGCHAHCPPGKILDELLQTCVDPEDCPVCEVAGRRFASGKKVTLNPSDPEHCQICHCDVVNLTCEACQEPGGLVVPPTDAPVSPTTLYVEDISEPPLHDFHHHHHHHH |
| 14.4 | 0.000103 | 7.15e+06 | Hu-vWF[764-1270]-8His S764M/S766Y (other) MLYCRPPMVKLVCPADNLRAEGLECTKTCQNYDLECMSMGCVSGCLCPPGMVRHENRCVALERCPCFHQGKEYAPGETVKIGCNTCVCRDRKWNCTDHVCDATCSTIGMAHYLTFDGLKYLFPGECQYVLVQDYCGSNPGTFRILVGNKGCSHPSVKCKKRVTILVEGGEIELFDGEVNVKRPMKDETHFEVVESGRYIILLLGKALSVVWDRHLSISVVLKQTYQEKVCGLCGNFDGIQNNDLTSSNLQVEEDPVDFGNSWKVSSQCADTRKVPLDSSPATCHNNIMKQTMVDSSCRILTSDVFQDCNKLVDPEPYLDVCIYDTCSCESIGDCACFCDTIAAYAHVCAQHGKVVTWRTATLCPQSCEERNLRENGYECEWRYNSCAPACQVTCQHPEPLACPVQCVEGCHAHCPPGKILDELLQTCVDPEDCPVCEVAGRRFASGKKVTLNPSDPEHCQICHCDVVNLTCEACQEPGGLVVPPTDAPVSPTTLYVEDISEPPLHDFHHHHHHHH |
| 6.92 | 8.88e-05 | 1.28e+07 | Hu-vWF[764-1270]-8His S764N/S766Y (other) NLYCRPPMVKLVCPADNLRAEGLECTKTCQNYDLECMSMGCVSGCLCPPGMVRHENRCVALERCPCFHQGKEYAPGETVKIGCNTCVCRDRKWNCTDHVCDATCSTIGMAHYLTFDGLKYLFPGECQYVLVQDYCGSNPGTFRILVGNKGCSHPSVKCKKRVTILVEGGEIELFDGEVNVKRPMKDETHFEVVESGRYIILLLGKALSVVWDRHLSISVVLKQTYQEKVCGLCGNFDGIQNNDLTSSNLQVEEDPVDFGNSWKVSSQCADTRKVPLDSSPATCHNNIMKQTMVDSSCRILTSDVFQDCNKLVDPEPYLDVCIYDTCSCESIGDCACFCDTIAAYAHVCAQHGKVVTWRTATLCPQSCEERNLRENGYECEWRYNSCAPACQVTCQHPEPLACPVQCVEGCHAHCPPGKILDELLQTCVDPEDCPVCEVAGRRFASGKKVTLNPSDPEHCQICHCDVVNLTCEACQEPGGLVVPPTDAPVSPTTLYVEDISEPPLHDFHHHHHHHH |

Continued, binder first:

| Binder | Kd [pM] | koff [s⁻¹] | kon [M⁻¹ s⁻¹] |
| --- | --- | --- | --- |
| Hu-vWF[764-1270]-8His S764I/S766Y (other) ILYCRPPMVKLVCPADNLRAEGLECTKTCQNYDLECMSMGCVSGCLCPPGMVRHENRCVALERCPCFHQGKEYAPGETVKIGCNTCVCRDRKWNCTDHVCDATCSTIGMAHYLTFDGLKYLFPGECQYVLVQDYCGSNPGTFRILVGNKGCSHPSVKCKKRVTILVEGGEIELFDGEVNVKRPMKDETHFEVVESGRYIILLLGKALSVVWDRHLSISVVLKQTYQEKVCGLCGNFDGIQNNDLTSSNLQVEEDPVDFGNSWKVSSQCADTRKVPLDSSPATCHNNIMKQTMVDSSCRILTSDVFQDCNKLVDPEPYLDVCIYDTCSCESIGDCACFCDTIAAYAHVCAQHGKVVTWRTATLCPQSCEERNLRENGYECEWRYNSCAPACQVTCQHPEPLACPVQCVEGCHAHCPPGKILDELLQTCVDPEDCPVCEVAGRRFASGKKVTLNPSDPEHCQICHCDVVNLTCEACQEPGGLVVPPTDAPVSPTTLYVEDISEPPLHDFHHHHHHHH | 9.23 | 9.52e-05 | 1.03e+07 |
| Hu-vWF[764-1270]-8His S764L/S766Y (other) LLYCRPPMVKLVCPADNLRAEGLECTKTCQNYDLECMSMGCVSGCLCPPGMVRHENRCVALERCPCFHQGKEYAPGETVKIGCNTCVCRDRKWNCTDHVCDATCSTIGMAHYLTFDGLKYLFPGECQYVLVQDYCGSNPGTFRILVGNKGCSHPSVKCKKRVTILVEGGEIELFDGEVNVKRPMKDETHFEVVESGRYIILLLGKALSVVWDRHLSISVVLKQTYQEKVCGLCGNFDGIQNNDLTSSNLQVEEDPVDFGNSWKVSSQCADTRKVPLDSSPATCHNNIMKQTMVDSSCRILTSDVFQDCNKLVDPEPYLDVCIYDTCSCESIGDCACFCDTIAAYAHVCAQHGKVVTWRTATLCPQSCEERNLRENGYECEWRYNSCAPACQVTCQHPEPLACPVQCVEGCHAHCPPGKILDELLQTCVDPEDCPVCEVAGRRFASGKKVTLNPSDPEHCQICHCDVVNLTCEACQEPGGLVVPPTDAPVSPTTLYVEDISEPPLHDFHHHHHHHH | 2.27 | 7.99e-05 | 3.52e+07 |
| Hu-vWF[764-1270]-8His S764Q/S766Y (other) QLYCRPPMVKLVCPADNLRAEGLECTKTCQNYDLECMSMGCVSGCLCPPGMVRHENRCVALERCPCFHQGKEYAPGETVKIGCNTCVCRDRKWNCTDHVCDATCSTIGMAHYLTFDGLKYLFPGECQYVLVQDYCGSNPGTFRILVGNKGCSHPSVKCKKRVTILVEGGEIELFDGEVNVKRPMKDETHFEVVESGRYIILLLGKALSVVWDRHLSISVVLKQTYQEKVCGLCGNFDGIQNNDLTSSNLQVEEDPVDFGNSWKVSSQCADTRKVPLDSSPATCHNNIMKQTMVDSSCRILTSDVFQDCNKLVDPEPYLDVCIYDTCSCESIGDCACFCDTIAAYAHVCAQHGKVVTWRTATLCPQSCEERNLRENGYECEWRYNSCAPACQVTCQHPEPLACPVQCVEGCHAHCPPGKILDELLQTCVDPEDCPVCEVAGRRFASGKKVTLNPSDPEHCQICHCDVVNLTCEACQEPGGLVVPPTDAPVSPTTLYVEDISEPPLHDFHHHHHHHH | 9.18 | 0.000109 | 1.19e+07 |
| Hu-vWF[764-1270]-8His S764R/S766Y (other) RLYCRPPMVKLVCPADNLRAEGLECTKTCQNYDLECMSMGCVSGCLCPPGMVRHENRCVALERCPCFHQGKEYAPGETVKIGCNTCVCRDRKWNCTDHVCDATCSTIGMAHYLTFDGLKYLFPGECQYVLVQDYCGSNPGTFRILVGNKGCSHPSVKCKKRVTILVEGGEIELFDGEVNVKRPMKDETHFEVVESGRYIILLLGKALSVVWDRHLSISVVLKQTYQEKVCGLCGNFDGIQNNDLTSSNLQVEEDPVDFGNSWKVSSQCADTRKVPLDSSPATCHNNIMKQTMVDSSCRILTSDVFQDCNKLVDPEPYLDVCIYDTCSCESIGDCACFCDTIAAYAHVCAQHGKVVTWRTATLCPQSCEERNLRENGYECEWRYNSCAPACQVTCQHPEPLACPVQCVEGCHAHCPPGKILDELLQTCVDPEDCPVCEVAGRRFASGKKVTLNPSDPEHCQICHCDVVNLTCEACQEPGGLVVPPTDAPVSPTTLYVEDISEPPLHDFHHHHHHHH | 2.85 | 9.2e-05 | 3.23e+07 |
